From US20230241168A1 (ALPINE IMMUNE SCIENCES, published 2023)
Positions count from the first letter of the chain named. Names may count otherwise. Values belong to the binder of their own block, whether it stands above or below them.

Key:
[1] = molecular target: recombinant human BAFF (human, UniProt Q9Y275 134-285); experiment: cell-based or functional assay
[2] = molecular target: T1, recombinant human APRIL (human, UniProt O75888 105-250, limits assumed); experiment: cell-based or functional assay
T1 sequence (looked up): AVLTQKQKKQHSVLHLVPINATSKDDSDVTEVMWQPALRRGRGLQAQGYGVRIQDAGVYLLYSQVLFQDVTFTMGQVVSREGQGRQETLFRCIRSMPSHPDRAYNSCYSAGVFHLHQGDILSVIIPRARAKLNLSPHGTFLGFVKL

B3: CTLA-4 165 GSG4S Fc (G4S)2 BCMA 357 (Fc fusion)
chain: KAMHVAQPAVVLASSRGIASFVCEYASPGKATEVRVTVLRQADSQVTEVCAASYMMGNELTFPDDSICTGTSSGNQVNLTIQGLRAMDTGLYICKVEQMYPPPYYLGIGNGTQIYVIDPEPCPDSDGSGGGGSEPKSSDKTHTCPPCPAPEAEGAPSVFLFPPKPKDTLMISRTPEVTCVVVDVSHEDPEVKFNWYVDGVEVHNAKTKPREEQYNSTYRVVSVLTVLHQDWLNGKEYKCKVSNKALPAPIEKTISKAKGQPREPQVYTLPPSRDELTKNQVSLTCLVKGFYPSDIAVEWESNGQPENNYKTTPPVLDSDGSFFLYSKLTVDKSRWQQGNVFSCSVMHEALHNHYTQKSLSLSPGGGGGSGGGGSLQMAGQCSQNEYFDSLLYACIPCQLRCSSNTPPLTCQRYCNASVTNSVKGTNA
- IC50 (nM) APRIL [2]: 0.606 nM
- IC50 APRIL (Δ Parental vTD) [2]: 0.9 ratio
- IC50 (nM) BAFF [1]: 11.8 nM
- IC50 BAFF (Δ Parental vTD) [1]: 2.2 ratio

B4: CTLA-4 92 GSG4S Fc (G4S)2 BCMA 356 (Fc fusion)
chain: B3 chain with G29W, S53T, N58S, Q82R, Y105L, Y392H
- IC50 (nM) APRIL [2]: 0.809 nM
- IC50 APRIL (Δ Parental vTD) [2]: 0 ratio
- IC50 (nM) BAFF [1]: 33.5 nM
- IC50 BAFF (Δ Parental vTD) [1]: 0.8 ratio

B6: Fc (G4S)2 BCMA (356) (Fc fusion)
chain: EPKSSDKTHTCPPCPAPEAEGAPSVFLFPPKPKDTLMISRTPEVTCVVVDVSHEDPEVKFNWYVDGVEVHNAKTKPREEQYNSTYRVVSVLTVLHQDWLNGKEYKCKVSNKALPAPIEKTISKAKGQPREPQVYTLPPSRDELTKNQVSLTCLVKGFYPSDIAVEWESNGQPENNYKTTPPVLDSDGSFFLYSKLTVDKSRWQQGNVFSCSVMHEALHNHYTQKSLSLSPGGGGGSGGGGSLQMAGQCSQNEYFDSLLHACIPCQLRCSSNTPPLTCQRYCNASVTNSVKGTNA
- IC50 (nM) APRIL [2]: 42.7 nM
- IC50 APRIL (Δ Parental vTD) [2]: 1 ratio
- IC50 (nM) BAFF [1]: 42.7 nM
- IC50 BAFF (Δ Parental vTD) [1]: 1 ratio

B8: TACI 528 (EAAAK)6 CTLA 4 668 (other)
chain: SLSCRKEQGKFYDHLLRDCISCASICGQHPKQCAYFCENKLRSEAAAKEAAAKEAAAKEAAAKEAAAKEAAAKKAMHVAQPAVVLASSRGIASFVCEYASPGKATEVRVTVLRQADSQVTEVCAATYMMGNELTFLDDSICTGTSSGNQVNLTIQGLRAMDTGLYICKVELMYPPPYYLGIGNGTQIYVIDPEPSPDSDQDYKDDDDKHHHHHH
- IC50 (nM) BAFF [1]: 5.18 nM
- IC50 BAFF (Δ Parental vTD) [1]: 2 ratio

B9: TACI 516 (EAAAK)6 CTLA 4 668 (other)
chain: VAMRSCPEEQYWDPLLGTCMSCKTICNHQSQRTCAAFCRSLSCRKEQGKFYDHLLRDCISCASICGQHPKQCAYFCENKLRSEAAAKEAAAKEAAAKEAAAKEAAAKEAAAKKAMHVAQPAVVLASSRGIASFVCEYASPGKATEVRVTVLRQADSQVTEVCAATYMMGNELTFLDDSICTGTSSGNQVNLTIQGLRAMDTGLYICKVELMYPPPYYLGIGNGTQIYVIDPEPSPDSDQDYKDDDDKHHHHHH
- IC50 (nM) APRIL [2]: 138 nM
- IC50 APRIL (Δ Parental vTD) [2]: 15 ratio
- IC50 (nM) BAFF [1]: 3.42 nM
- IC50 BAFF (Δ Parental vTD) [1]: 1.3 ratio

B10: CTLA-4 113 GSG4S Fc (G4S)4 TACI 688 (29-110) (Fc fusion)
chain: KAMHVAQPAVVFASSHGIASFVCEYASPWKATEVRVTVLRQADSQVTEVCAATYMTGNELTFLDDSICTGTSSGNQVNLTIQGLRAMDTGLYICKVEQMYPPPYLLGIGNGTQIYVIDPEPCPDSDGSGGGGSEPKSSDKTHTCPPCPAPEAEGAPSVFLFPPKPKDTLMISRTPEVTCVVVDVSHEDPEVKFNWYVDGVEVHNAKTKPREEQYNSTYRVVSVLTVLHQDWLNGKEYKCKVSNKALPAPIEKTISKAKGQPREPQVYTLPPSRDELTKNQVSLTCLVKGFYPSDIAVEWESNGQPENNYKTTPPVLDSDGSFFLYSKLTVDKSRWQQGNVFSCSVMHEALHNHYTQKSLSLSPGGGGGSGGGGSGGGGSGGGGSVAMRSCPEEQYWDPLLGTCMSCKTICNHQSQRTCAAFCRSLSCRKEQGKFYDHLLGDCISCASICGQHPKQCAYFCENKLRS
- IC50 (nM) APRIL [2]: 8.25 nM
- IC50 APRIL (Δ Parental vTD) [2]: 1.4 ratio
- IC50 (nM) BAFF [1]: 0.566 nM
- IC50 BAFF (Δ Parental vTD) [1]: 0.4 ratio

B11: TACI 542 GSG4S Fc (G4S)4 (CTLA-4 186) (Fc fusion)
chain: SLSCRKEEGKFYDHLLQDCISCASICGQHPKQCAYFCENKLRSGSGGGGSEPKSSDKTHTCPPCPAPEAEGAPSVFLFPPKPKDTLMISRTPEVTCVVVDVSHEDPEVKFNWYVDGVEVHNAKTKPREEQYNSTYRVVSVLTVLHQDWLNGKEYKCKVSNKALPAPIEKTISKAKGQPREPQVYTLPPSRDELTKNQVSLTCLVKGFYPSDIAVEWESNGQPENNYKTTPPVLDSDGSFFLYSKLTVDKSRWQQGNVFSCSVMHEALHNHYTQKSLSLSPGGGGGSGGGGSGGGGSGGGGSKAMHVAQPAVVLASSRGIASFVCEYASPWKATEVRVTVLRQADSQVTEVCAATYMMGNELTFLDDSICTGTSSGNQVNLTIQGLRAMDTGLYICKVEQMYPPPYLLGIGNGTQIYVIDPEPCPDSD
- IC50 (nM) APRIL [2]: 1.2 nM
- IC50 (nM) BAFF [1]: 0.179 nM

B12: CTLA-4 113 GSG4S Fc (G4S)4 TACI 535 (68-110) (Fc fusion)
chain: KAMHVAQPAVVFASSHGIASFVCEYASPWKATEVRVTVLRQADSQVTEVCAATYMTGNELTFLDDSICTGTSSGNQVNLTIQGLRAMDTGLYICKVEQMYPPPYLLGIGNGTQIYVIDPEPCPDSDGSGGGGSEPKSSDKTHTCPPCPAPEAEGAPSVFLFPPKPKDTLMISRTPEVTCVVVDVSHEDPEVKFNWYVDGVEVHNAKTKPREEQYNSTYRVVSVLTVLHQDWLNGKEYKCKVSNKALPAPIEKTISKAKGQPREPQVYTLPPSRDELTKNQVSLTCLVKGFYPSDIAVEWESNGQPENNYKTTPPVLDSDGSFFLYSKLTVDKSRWQQGNVFSCSVMHEALHNHYTQKSLSLSPGGGGGSGGGGSGGGGSGGGGSSLSCRKEQGKFYDHLLGDCISCASICGQHPKQCAYFCENKLRS
- IC50 (nM) APRIL [2]: 8.63 nM
- IC50 (nM) BAFF [1]: 0.506 nM
- IC50 BAFF (Δ Parental vTD) [1]: 0.4 ratio

B13: CTLA 4 165 GSG4S Fc (G4S)2 TACI 516 (Fc fusion)
chain: KAMHVAQPAVVLASSRGIASFVCEYASPGKATEVRVTVLRQADSQVTEVCAASYMMGNELTFPDDSICTGTSSGNQVNLTIQGLRAMDTGLYICKVEQMYPPPYYLGIGNGTQIYVIDPEPCPDSDGSGGGGSEPKSSDKTHTCPPCPAPEAEGAPSVFLFPPKPKDTLMISRTPEVTCVVVDVSHEDPEVKFNWYVDGVEVHNAKTKPREEQYNSTYRVVSVLTVLHQDWLNGKEYKCKVSNKALPAPIEKTISKAKGQPREPQVYTLPPSRDELTKNQVSLTCLVKGFYPSDIAVEWESNGQPENNYKTTPPVLDSDGSFFLYSKLTVDKSRWQQGNVFSCSVMHEALHNHYTQKSLSLSPGGGGGSGGGGSVAMRSCPEEQYWDPLLGTCMSCKTICNHQSQRTCAAFCRSLSCRKEQGKFYDHLLRDCISCASICGQHPKQCAYFCENKLRS
- IC50 (nM) APRIL [2]: 4.64 nM
- IC50 APRIL (Δ Parental vTD) [2]: 0.9 ratio
- IC50 (nM) BAFF [1]: 0.928 nM
- IC50 BAFF (Δ Parental vTD) [1]: 0.5 ratio

B15: TACI 516 (G4S)3 CTLA 4 668 (other)
chain: VAMRSCPEEQYWDPLLGTCMSCKTICNHQSQRTCAAFCRSLSCRKEQGKFYDHLLRDCISCASICGQHPKQCAYFCENKLRSGGGGSGGGGSGGGGSKAMHVAQPAVVLASSRGIASFVCEYASPGKATEVRVTVLRQADSQVTEVCAATYMMGNELTFLDDSICTGTSSGNQVNLTIQGLRAMDTGLYICKVELMYPPPYYLGIGNGTQIYVIDPEPSPDSDQDYKDDDDKHHHHHH
- IC50 (nM) BAFF [1]: 8.75 nM
- IC50 BAFF (Δ Parental vTD) [1]: 3.4 ratio

Next, values leading:

- IC50 (nM) BAFF [1]: 8.41 nM
- IC50 BAFF (Δ Parental vTD) [1]: 3.3 ratio
B1: TACI 528 (G4S)3 CTLA 4 668 (other)
chain: SLSCRKEQGKFYDHLLRDCISCASICGQHPKQCAYFCENKLRSGGGGSGGGGSGGGGSKAMHVAQPAVVLASSRGIASFVCEYASPGKATEVRVTVLRQADSQVTEVCAATYMMGNELTFLDDSICTGTSSGNQVNLTIQGLRAMDTGLYICKVELMYPPPYYLGIGNGTQIYVIDPEPSPDSDQDYKDDDDKHHHHHH

- IC50 (nM) APRIL [2]: 0.894 nM
- IC50 APRIL (Δ Parental vTD) [2]: 0 ratio
- IC50 (nM) BAFF [1]: 36.8 nM
- IC50 BAFF (Δ Parental vTD) [1]: 0.9 ratio
B2: CTLA-4 165 GSG4S Fc (G4S)2 BCMA 356 (Fc fusion)
chain: B3 chain with Y392H

- IC50 (nM) APRIL [2]: 0.876 nM
- IC50 (nM) BAFF [1]: 0.0617 nM
B5: BCMA 381 GSG4S-Fc-(G4S)4-CTLA-4 186 (Fc fusion)
chain: LQMAGQCSQNEYFDALLYACIPCQLRCSSNTPPLTCQQYCNASVTNSVKGTNAGSGGGGSEPKSSDKTHTCPPCPAPEAEGAPSVFLFPPKPKDTLMISRTPEVTCVVVDVSHEDPEVKFNWYVDGVEVHNAKTKPREEQYNSTYRVVSVLTVLHQDWLNGKEYKCKVSNKALPAPIEKTISKAKGQPREPQVYTLPPSRDELTKNQVSLTCLVKGFYPSDIAVEWESNGQPENNYKTTPPVLDSDGSFFLYSKLTVDKSRWQQGNVFSCSVMHEALHNHYTQKSLSLSPGGGGGSGGGGSGGGGSGGGGSKAMHVAQPAVVLASSRGIASFVCEYASPWKATEVRVTVLRQADSQVTEVCAATYMMGNELTFLDDSICTGTSSGNQVNLTIQGLRAMDTGLYICKVEQMYPPPYLLGIGNGTQIYVIDPEPCPDSD

- IC50 (nM) APRIL [2]: 0.696 nM
- IC50 APRIL (Δ Parental vTD) [2]: 1 ratio
- IC50 (nM) BAFF [1]: 5.44 nM
- IC50 BAFF (Δ Parental vTD) [1]: 1 ratio
B7: Fc (G4S)2 BCMA (357) (Fc fusion)
chain: B6 chain with H259Y

- IC50 (nM) APRIL [2]: 6.75 nM
- IC50 APRIL (Δ Parental vTD) [2]: 1.3 ratio
- IC50 (nM) BAFF [1]: 1.73 nM
- IC50 BAFF (Δ Parental vTD) [1]: 1 ratio
B14: CTLA 4 92 GSG4S Fc (G4S)2 TACI 516 (Fc fusion)
chain: B13 chain with G29W, S53T, N58S, Q82R, Y105L
